Test results from patent US20090181003.

Assays:
[1] = biological target: recombinant S6K2 (highly purified)
[2] = biological target: GST [GST: P08515]
[3] = biological target: recombinant S6K1 (highly purified)

Sequence of recombinant S6K2 (highly purified) (chain, as listed by the source): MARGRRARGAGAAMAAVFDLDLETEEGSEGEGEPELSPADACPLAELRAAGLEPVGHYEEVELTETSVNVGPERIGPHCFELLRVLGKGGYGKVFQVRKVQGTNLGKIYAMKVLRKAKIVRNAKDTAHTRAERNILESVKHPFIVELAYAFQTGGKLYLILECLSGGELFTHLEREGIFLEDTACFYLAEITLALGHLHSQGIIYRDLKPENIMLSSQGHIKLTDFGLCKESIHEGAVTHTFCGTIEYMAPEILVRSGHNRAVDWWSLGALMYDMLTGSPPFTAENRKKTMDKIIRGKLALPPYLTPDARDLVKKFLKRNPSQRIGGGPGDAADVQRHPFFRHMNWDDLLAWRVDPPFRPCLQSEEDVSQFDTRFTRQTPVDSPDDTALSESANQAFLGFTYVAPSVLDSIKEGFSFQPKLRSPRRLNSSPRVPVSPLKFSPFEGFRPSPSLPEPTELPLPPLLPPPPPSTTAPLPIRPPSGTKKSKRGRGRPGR
Sequence of GST [GST: P08515] (P08515 whole entry): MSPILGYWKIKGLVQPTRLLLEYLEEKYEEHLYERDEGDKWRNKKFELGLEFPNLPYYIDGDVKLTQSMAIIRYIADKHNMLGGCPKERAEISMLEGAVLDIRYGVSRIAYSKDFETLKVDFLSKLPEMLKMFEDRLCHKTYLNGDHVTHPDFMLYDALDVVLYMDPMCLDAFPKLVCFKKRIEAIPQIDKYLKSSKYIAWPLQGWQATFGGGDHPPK

B1: GST-p300 HAT domain 4 (protein)
chain: KPKRLQEWYKKMLDKAVSERIVHDYKDIFKQATEDRLTSAKELPYFEGDFWPNVLEESIKELEQEEEERKREENTSNESTDVTKGDSKNAKKKNNKKTSKNKSSLSRGNKKKPGMPNVSNDLSQKLYATMEKHKEVFFVIRLIAGPAANSLPPIVDPDPLIPCDLMDGRDAFLTLARDKHLEFSSLRRAQWSTMCMLVELHTQSQDRFVYTCNECKHHVETRWHCTVCEDYDLCITCYNTKNHDHKMEKLGLGLDDESNNQQAAATQSPGDSRRLSIQRCIQSLVHACQCRNANCSLPSCQKMKRVVQHTKGCKRKTNGGCPICKQLIALCCYHAKHCQENKCPVPFCLNIKQKLRQQQLQHRLQQAQMLRRRMASMQRTGVVGQQQGLPSPTPATPTTPTGQQPTTPQTPQPTSQPQPTPPNSMPPYLPRTQA
[1]
  in vitro acetylation (incorporation of 14C labelled acetyl groups, autoradiography): when S6K1 and S6K2 were incubated in the presence of GST-p300 HAT domain 4 or GST-P/CAF, ^14C labeled acetyl groups were indeed incorporated into the proteins
[2]
  in vitro acetylation: no acetylation of GST is seen under these conditions
[3]
  in vitro acetylation (incorporation of 14C labelled acetyl groups, autoradiography): when S6K1 and S6K2 were incubated in the presence of GST-p300 HAT domain 4 or GST-P/CAF, ^14C labeled acetyl groups were indeed incorporated into the proteins

B2: GST-P/CAF (protein)
chain: MSEAGGAGPGGCGAGAGAGAGPGALPPQPAALPPAPPQGSPCAAAAGGSGACGPATAVAAAGTAEGPGGGGSARIAVKKAQLRSAPRAKKLEKLGVYSACKAEESCKCNGWKNPNPSPTPPRADLQQIIVSLTESCRSCSHALAAHVSHLENVSEEEMNRLLGIVLDVEYLFTCVHKEEDADTKQVYFYLFKLLRKSILQRGKPVVEGSLEKKPPFEKPSIEQGVNNFVQYKFSHLPAKERQTIVELAKMFLNRINYWHLEAPSQRRLRSPNDDISGYKENYTRWLCYCNVPQFCDSLPRYETTQVFGRTLLRSVFTVMRRQLLEQARQEKDKLPLEKRTLILTHFPKFLSMLEEEVYSQNSPIWDQDFLSASSRTSQLGIQTVINPPPVAGTISYNSTSSSLEQPNAGSSSPACKASSGLEANPGEKRKMTDSHVLEEAKKPRVMGDIPMELINEVMSTITDPAAMLGPETNFLSAHSARDEAARLEERRGVIEFHVVGNSLNQKPNKKILMWLVGLQNVFSHQLPRMPKEYITRLVFDPKHKTLALIKDGRVIGGICFRMFPSQGFTEIVFCAVTSNEQVKGYGTHLMNHLKEYHIKHDILNFLTYADEYAIGYFKKQGFSKEIKIPKTKYVGYIKDYEGATLMGCELNPRIPYTEFSVIIKKQKEIIKKLIERKQAQIRKVYPGLSCFKDGVRQIPIESIPGIRETGWKPSGKEKSKEPRDPDQLYSTLKSILQQVKSHQSAWPFMEPVKRTEAPGYYEVIRFPMDLKTMSERLKNRYYVSKKLFMADLQRVFTNCKEYNPPESEYYKCANILEKFFFSKIKEAGLIDK
[1]
  in vitro acetylation (incorporation of 14C labelled acetyl groups, autoradiography): when S6K1 and S6K2 were incubated in the presence of GST-p300 HAT domain 4 or GST-P/CAF, ^14C labeled acetyl groups were indeed incorporated into the proteins
[3]
  in vitro acetylation (incorporation of 14C labelled acetyl groups, autoradiography): when S6K1 and S6K2 were incubated in the presence of GST-p300 HAT domain 4 or GST-P/CAF, ^14C labeled acetyl groups were indeed incorporated into the proteins
